Measurements as given in the supplement of paper PMC10567573.

B1: ATL3 (parent)
chain: YGLQGGMAFLDKRLQVKEHQHEEI

Variants of: B1
Assay: protein stability index of a GFP-peptide fusion (GPS, HEK-293T) (PSI 1-6); higher = more stable
Conditions: c terminus: a fixed tail appended
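Note: lentivirally expressed fusions sorted by FACS into six bins by GFP to DsRed ratio, PSI derived from sequencing read proportions per bin multiplied by bin number.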

Variant	protein stability index
YGLQGGMAFLDKRLQVKEHQHHEI	2.91
YGLQGGMAFLDKRLQVKEHQHKEI	1.86
YGLQGGMAFLDKRLQVKEHQHAEI	2.54
YGLQGGMAFLDKRLQVKEHQHDEI	2.48
YGLQGGMAFLDKRLQVKEHQHFEI	2.03
YGLQGGMAFLDKRLQVKEHQHIEI	2.94
YGLQGGMAFLDKRLQVKEHQHGEI	2.8
YGLQGGMAFLDKRLQVKEHQHCEI	2.48
YGLQGGMAFLDKRLQVKEGQHEEI	2.65
YGLQGGMAFLDKRLQVKESQHEEI	2.01
YGLQGGMAFLDKRLQVKECQHEEI	2.31
YGLQGGMAFLDKRLQVKEEQHEEI	2.81
YGLQGGMAFLDKRLQVKEKQHEEI	2.25
YGLQGGMAFLDKRLQVKEQQHEEI	2.48
YGLQGGMAFLDKRLQVKEVQHEEI	3.03
YGLQGGMAFLDKRLQVKEIQHEEI	2.95
YGLQGGMAFLDKRLQVKEMQHEEI	2.82
YGLQGGMAFLDKRLQVKEDQHEEI	3.38
YGLQGGMAFLDKRLQVKEPQHEEI	2.5
YGLQGGMAFLDKRLQVKEYQHEEI	2.76
YGLQGGMAFLDKRLQVKEWQHEEI	3.59
YGLQGGMAFLDKRLQVKETQHEEI	2.54
YGLQGGMAFLDKRLQVKEAQHEEI	2.74
YGLQGGMAFLDKRLQVKENQHEEI	2.6

Variant	protein stability index
YGLQGGMAFLDKRLQVKELQHEEI	2.36
YGLQGGMAFLDKRLQVKEHQREEI	3.51
YGLQGGMAFLDKRLQVKEHQEEEI	3.27
YGLQGGMAFLDKRLQVKEHQVEEI	2.1
YGLQGGMAFLDKRLQVKEHQPEEI	2.33
YGLQGGMAFLDKRLQVKEHQAEEI	2.51
YGLQGGMAFLDKRLQVKEHQFEEI	1.6
YGLQGGMAFLDKRLQVKEHQIEEI	3.39
YGLQGGMAFLDKRLQVKEHQMEEI	2.2
YGLQGGMAFLDKRLQVKEHQQEEI	2.44
YGLQGGMAFLDKRLQVKEHQTEEI	3.49
YGLQGGMAFLDKRLQVKEHQDEEI	2.11
YGLQGGMAFLDKRLQVKEHQCEEI	2.48
YGLQGGMAFLDKRLQVKEHQLEEI	2.8
YGLQGGMAFLDKRLQVKEHQKEEI	3.21
YGLQGGMAFLDKRLQVKEHQSEEI	3.88
YGLQGGMAFLDKRLQVKEHQYEEI	2.55
YGLQGGMAFLDKRLQCKEHQHEEI	2.78
YGLQGGMAFLDKRLQPKEHQHEEI	1.22
YGLQGGMAFLDKRLQSKEHQHEEI	1.46
YGLQGGMAFLDKRLQGKEHQHEEI	1.77
YGLQGGMAFLDKRLQRKEHQHEEI	2.02
YGLQGGMAFLDKRLQYKEHQHEEI	3.04
YGLQGGMAFLDKRLQHKEHQHEEI	1.91

Variant	protein stability index
YGLQGGMAFLDKRLQAKEHQHEEI	2.7
YGLQGGMAFLDKRLQDKEHQHEEI	2.08
YGLQGGMAFLDKRLQFKEHQHEEI	2.5
YGLQGGMAFLDKRLQMKEHQHEEI	2.42
YGLQGGMAFLDKRLQKKEHQHEEI	2.84
YGLQGGMAFLDKRLQQKEHQHEEI	3.13
YGLQGGMAFLDKRLQEKEHQHEEI	2.79
YGLQGGMAFLDKRLQTKEHQHEEI	2.3
YGLQGGMAFLDKRLQNKEHQHEEI	1.6
YGLQGGMAFLDKRLQLKEHQHEEI	2.81
YGLQGGMAFLDKRLQWKEHQHEEI	2.33
YGLQGGMAFLDKRLQVKMHQHEEI	3.04
YGLQGGMAFLDKRLQVKYHQHEEI	2.61
YGLQGGMAFLDKRLQVKVHQHEEI	1.9
YGLQGGMAFLDKRLQVKTHQHEEI	2.4
YGLQGGMAFLDKRLQVKGHQHEEI	3.65
YGLQGGMAFLDKRLQVKDHQHEEI	2.19
YGLQGGMAFLDKRLQVKQHQHEEI	1.99
YGLQGGMAFLDKRLQVKCHQHEEI	2.58
YGLQGGMAFLDKRLQVKIHQHEEI	3.67
YGLQGGMAFLDKRLQVKPHQHEEI	2.37
YGLQGGMAFLDKRLQVKWHQHEEI	3.87
YGLQGGMAFLDKRLQVKFHQHEEI	3.53
YGLQGGMAFLDKRLQVKNHQHEEI	2.32

Variant	protein stability index
YGLQGGMAFLDKRLQVKAHQHEEI	3.26
YGLQGGMAFLDKRLQVKLHQHEEI	1.74
YGLQGGMAFLDKRLQVKRHQHEEI	2.19
YGLQGGMAFLDKRLQVKHHQHEEI	2.48
YGLQGGMAFLDKRLQVKKHQHEEI	3.37
YGLQGGMAFLDKRLQVKSHQHEEI	1.73
YGLQGGMAFLDKRLVVKEHQHEEI	2.9
YGLQGGMAFLDKRLIVKEHQHEEI	2.64
YGLQGGMAFLDKRLYVKEHQHEEI	2.44
YGLQGGMAFLDKRLRVKEHQHEEI	2.28
YGLQGGMAFLDKRLAVKEHQHEEI	3.14
YGLQGGMAFLDKRLKVKEHQHEEI	2.54
YGLQGGMAFLDKRLGVKEHQHEEI	2.69
YGLQGGMAFLDKRLHVKEHQHEEI	2.75
YGLQGGMAFLDKRLTVKEHQHEEI	2.04
YGLQGGMAFLDKRLMVKEHQHEEI	3.24
YGLQGGMAFLDKRLWVKEHQHEEI	2.37
YGLQGGMAFLDKRLEVKEHQHEEI	1.76
YGLQGGMAFLDKRLPVKEHQHEEI	2.47
YGLQGGMAFLDKRLSVKEHQHEEI	3.92
YGLQGGMAFLDKRLNVKEHQHEEI	1.79
YGLQGGMAFLDKRLLVKEHQHEEI	2.21
YGLQGGMAFLDKRLFVKEHQHEEI	2.65
YGLQGGMAFLDKRLCVKEHQHEEI	3.47

Variant	protein stability index
YGLQGGMAFLDKRLDVKEHQHEEI	2.4
YGLQGGMAFLDQRLQVKEHQHEEI	1.81
YGLQGGMAFLDFRLQVKEHQHEEI	3.37
YGLQGGMAFLDGRLQVKEHQHEEI	2.22
YGLQGGMAFLDLRLQVKEHQHEEI	3.83
YGLQGGMAFLDMRLQVKEHQHEEI	2.89
YGLQGGMAFLDTRLQVKEHQHEEI	1.79
YGLQGGMAFLDSRLQVKEHQHEEI	2.26
YGLQGGMAFLDARLQVKEHQHEEI	1.93
YGLQGGMAFLDPRLQVKEHQHEEI	1.88
YGLQGGMAFLDWRLQVKEHQHEEI	2.44
YGLQGGMAFLDCRLQVKEHQHEEI	1.49
YGLQGGMAFLDHRLQVKEHQHEEI	2.03
YGLQGGMAFLDNRLQVKEHQHEEI	2.91
YGLQGGMAFLDIRLQVKEHQHEEI	3.88
YGLQGGMAFLDERLQVKEHQHEEI	1.99
YGLQGGMAFLDDRLQVKEHQHEEI	1.75
YGLQGGMAFLDYRLQVKEHQHEEI	2.73
YGLQGGMAFLDVRLQVKEHQHEEI	2.62
YGLQGGMAFLDKKLQVKEHQHEEI	2.84
YGLQGGMAFLDKCLQVKEHQHEEI	2.56
YGLQGGMAFLDKYLQVKEHQHEEI	1.34
YGLQGGMAFLDKALQVKEHQHEEI	2.47
YGLQGGMAFLDKFLQVKEHQHEEI	2.73

Variant	protein stability index
YGLQGGMAFLDKLLQVKEHQHEEI	2.3
YGLQGGMAFLDKDLQVKEHQHEEI	1.52
YGLQGGMAFLDKQLQVKEHQHEEI	1.86
YGLQGGMAFLDKILQVKEHQHEEI	1.66
YGLQGGMAFLDKVLQVKEHQHEEI	2.14
YGLQGGMAFLDKMLQVKEHQHEEI	2.04
YGLQGGMAFLDKTLQVKEHQHEEI	2.28
YGLQGGMAFLDKGLQVKEHQHEEI	1.28
YGLQGGMAFLDKWLQVKEHQHEEI	1.73
YGLQGGMAFLDKELQVKEHQHEEI	1.59
YGLQGGMAFLDKPLQVKEHQHEEI	1.93
YGLQGGMAFLDKSLQVKEHQHEEI	1.98
YGLQGGMAFLDKNLQVKEHQHEEI	2.87
YGLQGGMAFLDKHLQVKEHQHEEI	2.26
YGLQGGMAFLDKRLQVDEHQHEEI	1.54
YGLQGGMAFLDKRLQVVEHQHEEI	2.42
YGLQGGMAFLDKRLQVQEHQHEEI	1.55
YGLQGGMAFLDKRLQVEEHQHEEI	2.56
YGLQGGMAFLDKRLQVSEHQHEEI	1.8
YGLQGGMAFLDKRLQVAEHQHEEI	1.42
YGLQGGMAFLDKRLQVFEHQHEEI	2.52
YGLQGGMAFLDKRLQVWEHQHEEI	2.2
YGLQGGMAFLDKRLQVTEHQHEEI	2.7
YGLQGGMAFLDKRLQVNEHQHEEI	3.3

Variant	protein stability index
YGLQGGMAFLDKRLQVMEHQHEEI	2.55
YGLQGGMAFLDKRLQVIEHQHEEI	2.51
YGLQGGMAFLDKRLQVYEHQHEEI	3.11
YGLQGGMAFLDKRLQVHEHQHEEI	2.63
YGLQGGMAFLDKRLQVPEHQHEEI	2.82
YGLQGGMAFLDKRLQVREHQHEEI	2.99
YGLQGGMAFLDKRLQVCEHQHEEI	2.17
YGLQGGMAFLDKRLQVKEHMHEEI	2.35
YGLQGGMAFLDKRLQVKEHYHEEI	2.58
YGLQGGMAFLDKRLQVKEHDHEEI	3.09
YGLQGGMAFLDKRLQVKEHFHEEI	3.31
YGLQGGMAFLDKRLQVKEHCHEEI	3.54
YGLQGGMAFLDKRLQVKEHGHEEI	3.57
YGLQGGMAFLDKRLQVKEHNHEEI	2.86
YGLQGGMAFLDKRLQVKEHPHEEI	2
YGLQGGMAFLDKRLQVKEHWHEEI	1.55
YGLQGGMAFLDKRLQVKEHEHEEI	2.5
YGLQGGMAFLDKRLQVKEHIHEEI	2.56
YGLQGGMAFLDKRLQVKEHRHEEI	1.57
YGLQGGMAFLDKRLQVKEHAHEEI	2.87
YGLQGGMAFLDKRLQVKEHTHEEI	2.2
YGLQGGMAFLDKRLQVKEHSHEEI	2.12
YGLQGGMAFLDKRLQVKEHVHEEI	2.99
YGLQGGMAFLDKRLQVKEHKHEEI	1.85

Variant	protein stability index
YGLQGGMAFLDKRLQVKEHHHEEI	3.12
YGLQGGMAFLDKRNQVKEHQHEEI	1.77
YGLQGGMAFLDKRTQVKEHQHEEI	3.17
YGLQGGMAFLDKRSQVKEHQHEEI	2.57
YGLQGGMAFLDKRIQVKEHQHEEI	2.63
YGLQGGMAFLDKRFQVKEHQHEEI	2.82
YGLQGGMAFLDKRVQVKEHQHEEI	2.45
YGLQGGMAFLDKRKQVKEHQHEEI	2.1
YGLQGGMAFLDKRGQVKEHQHEEI	3.93
YGLQGGMAFLDKRMQVKEHQHEEI	2.07
YGLQGGMAFLDKRQQVKEHQHEEI	1.52
YGLQGGMAFLDKRHQVKEHQHEEI	2.04
YGLQGGMAFLDKRYQVKEHQHEEI	3.4
YGLQGGMAFLDKREQVKEHQHEEI	2.55
YGLQGGMAFLDKRDQVKEHQHEEI	2.16
YGLQGGMAFLDKRAQVKEHQHEEI	3.51
YGLQGGMAFLDKRPQVKEHQHEEI	3.04
YGLQGGMAFLDKRCQVKEHQHEEI	3.61
YGLQGGMAFLDKRRQVKEHQHEEI	2.48
YGLQGGMAFLDKRWQVKEHQHEEI	2.82
